Molecular target: hDOP–C352I Gαi2
Assay: radioligand binding

pKi: 9
Substance: DADLE (D-Ala^2, Leu^5-enkephalin) (peptide)

— PMC2474558
